{
  "source": "paper PMC4366142",
  "origin": "cited, not measured here",
  "biological_target": "muscle voltage-gated sodium channel (UniProt P15390)",
  "sequence (P15390 whole entry)": "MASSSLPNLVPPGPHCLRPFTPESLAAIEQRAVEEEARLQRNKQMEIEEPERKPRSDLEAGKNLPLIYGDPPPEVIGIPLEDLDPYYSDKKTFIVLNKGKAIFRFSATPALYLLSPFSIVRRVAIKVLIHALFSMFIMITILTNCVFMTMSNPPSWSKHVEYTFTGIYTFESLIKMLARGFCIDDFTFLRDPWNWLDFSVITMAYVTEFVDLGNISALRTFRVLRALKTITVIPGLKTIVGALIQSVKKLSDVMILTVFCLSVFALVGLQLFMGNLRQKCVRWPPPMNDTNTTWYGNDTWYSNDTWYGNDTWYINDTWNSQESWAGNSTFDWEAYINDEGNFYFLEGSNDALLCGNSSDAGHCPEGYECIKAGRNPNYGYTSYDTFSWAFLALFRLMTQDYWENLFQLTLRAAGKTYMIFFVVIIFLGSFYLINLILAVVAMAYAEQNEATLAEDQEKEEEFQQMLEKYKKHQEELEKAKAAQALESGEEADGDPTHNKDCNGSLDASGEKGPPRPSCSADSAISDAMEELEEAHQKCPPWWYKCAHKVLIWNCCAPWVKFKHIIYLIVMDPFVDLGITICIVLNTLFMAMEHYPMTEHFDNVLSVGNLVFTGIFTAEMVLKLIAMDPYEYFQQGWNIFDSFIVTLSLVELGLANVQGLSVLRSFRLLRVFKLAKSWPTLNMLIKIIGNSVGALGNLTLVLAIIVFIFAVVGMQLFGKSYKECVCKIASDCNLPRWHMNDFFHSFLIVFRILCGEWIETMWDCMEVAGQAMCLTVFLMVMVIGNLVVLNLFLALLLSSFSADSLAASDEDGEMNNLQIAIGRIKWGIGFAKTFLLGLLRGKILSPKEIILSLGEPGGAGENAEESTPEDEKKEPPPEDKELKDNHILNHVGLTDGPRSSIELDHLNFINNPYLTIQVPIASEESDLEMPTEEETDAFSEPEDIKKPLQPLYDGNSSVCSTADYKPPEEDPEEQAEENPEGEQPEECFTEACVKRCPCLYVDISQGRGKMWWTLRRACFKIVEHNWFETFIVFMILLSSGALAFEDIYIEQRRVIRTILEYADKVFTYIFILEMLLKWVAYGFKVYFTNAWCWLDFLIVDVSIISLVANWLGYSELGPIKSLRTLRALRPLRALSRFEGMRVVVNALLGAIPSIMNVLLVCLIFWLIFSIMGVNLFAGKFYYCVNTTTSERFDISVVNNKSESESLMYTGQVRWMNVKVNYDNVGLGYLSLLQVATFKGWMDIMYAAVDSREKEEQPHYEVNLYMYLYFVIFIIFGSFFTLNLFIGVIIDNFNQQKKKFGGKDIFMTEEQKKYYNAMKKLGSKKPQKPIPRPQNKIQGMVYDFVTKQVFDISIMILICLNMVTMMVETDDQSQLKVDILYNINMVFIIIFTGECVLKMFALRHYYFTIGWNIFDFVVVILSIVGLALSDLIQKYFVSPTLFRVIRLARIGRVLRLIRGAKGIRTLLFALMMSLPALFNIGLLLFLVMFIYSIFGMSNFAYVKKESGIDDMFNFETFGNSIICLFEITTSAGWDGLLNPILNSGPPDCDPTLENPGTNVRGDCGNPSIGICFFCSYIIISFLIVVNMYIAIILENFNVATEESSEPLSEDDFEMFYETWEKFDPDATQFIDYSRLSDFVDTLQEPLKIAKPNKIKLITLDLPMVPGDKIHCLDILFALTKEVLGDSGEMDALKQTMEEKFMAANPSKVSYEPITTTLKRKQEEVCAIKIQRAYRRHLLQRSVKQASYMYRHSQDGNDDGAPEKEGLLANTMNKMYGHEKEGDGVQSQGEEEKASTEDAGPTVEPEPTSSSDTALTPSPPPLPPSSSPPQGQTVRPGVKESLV",
  "data": [
    {"substance": "μ-conotoxin GIIIA (from UniProt P01523)", "values": [
      {"measurement": "Kd", "value": 25, "unit": "nM"}
    ]}
  ]
}
